Data set [1] has as its target MurE-MurF bifunctional fusion protein from Bordetella pertussis, His-tagged (Bordetella pertussis (strain ATCC 9797/DSM No 5571)). Nature of the data set: AUC; sedimentation velocity, dimer pool of MurE-MurF at 40, 10 and 2.5 μM, 42,000 rpm, 20 °C.
For data set [2] the target is unchanged. Description: SEC-MALS; larger SEC form (dimer pool) of MurE-MurF; 25 mM HEPES pH 7.5, 300 mM NaCl, 10 mM MgCl2, 5% glycerol; room temperature. A general note: In gel filtration, larger molecules generally elute earlier.
The target is the same in data set [3].
Data set [4] concerns the molecule itself. Nature of the data set: AUC; sedimentation velocity, MurG 2 mg/ml in buffer with DM (1.2 x CMC), 42,000 rpm, 20 °C.
Data set [5] concerns the target FITC-labelled MurE-MurF fusion protein from Bordetella pertussis (Bordetella pertussis (strain ATCC 9797/DSM No 5571)). Description: MST; FITC-labelled MurE-MurF at a fixed concentration, MurG purified in detergent titrated; 25 mM HEPES pH 7.5, 150 mM NaCl, 10 mM MgCl2, 5% glycerol, 0.17% w/v DM; 22 °C; triplicate.
The target is the same in data set [6]. Nature of the data set: MST; FITC-labelled MurE-MurF at a fixed concentration, oligomeric MurG (purified without detergent) titrated from 1 nM to 37 μM; 25 mM HEPES pH 7.5, 150 mM NaCl, 10 mM MgCl2, 5% glycerol, no detergent; apparent KD, no clear plateau.

By stoichiometry N is commonly meant a count of units in the complex or per binding partner. Take “MurE-MurF bifunctional fusion protein from Bordetella pertussis, His-tagged (enzyme)”: the stoichiometry N in data set [1] and in data set [2] was 2 each time. Besides, the specific activity of the MurF-catalysed reaction (D-Ala-D-Ala-adding) of the dimeric form of MurE-MurF; the monomeric form gave 14.1 µmol/min/mg in data set [3] is 7.5 µmol/min/mg.

B1: MurG glycosyltransferase from Bordetella pertussis, N-terminal Strep-tagged (enzyme, UniProt Q7VUQ3 1-357, looked up)
chain: MSAPTILIMAGGTGGHIMPGLAVAEVLRERGWRVLWLGNPDKMEGRLVPPRGIELVPLRFQGVRGRGAAALLKLPFLLARACAQAWRRLADIRPDVVLGMGGYVAFPGGVMAALRRTPLVVHEQNAVAGTANRWLARLARRVLSGFPGVLPRGEALGNPVRADLCALPEPAERYAGRSGALRVLVVGGSLGAHALNTTVPQALALLPEQARPQVVHQAGEQHLPALQQAYAQAGVQADCRAFIDDMADAMAQADLLICRAGAMTVSEVAAAGVAALFVPFPHAIDDHQTANARFLSDAQAAWLQPQASLTPQWLAQWLGQRTRQELQAVAGRARTHALPRAAAHIADVCEQAARRAS
notes: MurG, Bordetella pertussis strain ATCC 9797/DSM No 5571; printed as a 357-residue protein; the murG gene was cloned into a modified pET30b; The Strep-tag is TEV-cleavable, but no cleavage is described; It is not clear whether the 357 residues include the tag; The oligomeric state depends on detergent: dimer in DDM/DM, tetramers and higher without; The discussion gives a mass of 50 kDa; also …
For B1, in data set [4], the “stoichiometry N” value is 2. In addition, the Kd in data set [5] is 570 nM; in data set [6] it was 970 nM.

For the origin of these results see PMC6420597, “The MurG glycosyltransferase provides an oligomeric scaffold for the cytoplasmic steps of peptidoglycan biosynthesis in the human pathogen Bordetella pertussis” (Scientific Reports, 2019).
